Measured values: patent US20240018502A1
Residue numbers refer to the chain shown, from its start. Names may count otherwise.

B1: Q38H/I41S/D60bT/F60eS/Y60gW/F97D/ins97aV/T98P/F99L/C122S/G151H/Q175L/Q192E (enzyme)
chain: VVGGTDADEGEWPWQVSLHALGHGHSCGASLISPNWLVSAAHCYIDTRGSRWSDPTQWTAFLGLHDQSQRSAPGVQERRLKRIISHPFFNDDVPLDYDIALLELEKPAEYSSMVRPISLPDASHVFPAGKAIWVTGWGHTQYGGTHALILQKGEIRVINQTTCENLLPQLITPRMMCVGFLSGGVDSCEGDSGGPLSSVEADGRIFQAGVVSWGDGCAQRNKPGVYTRLPLFRDWIKENTGV
B2: Q38H/I41A/D60bV/F60eR/Y60gW/D96I/F97Y/ins97aN/T98G/F99L/C122S/G151N/Q175L/Q192D (enzyme)
chain: B1 chain with S26A, T47V, S50R, D91I, D92Y, V93N, P94G, H146N, E189D

Tests used:
[1] = biological target: proteinase-activated receptor 2 (PAR-2) (UniProt P55085); assay: cell-based or functional assay
proteinase-activated receptor 2 (PAR-2), sequence (P55085 37-397 limits assumed): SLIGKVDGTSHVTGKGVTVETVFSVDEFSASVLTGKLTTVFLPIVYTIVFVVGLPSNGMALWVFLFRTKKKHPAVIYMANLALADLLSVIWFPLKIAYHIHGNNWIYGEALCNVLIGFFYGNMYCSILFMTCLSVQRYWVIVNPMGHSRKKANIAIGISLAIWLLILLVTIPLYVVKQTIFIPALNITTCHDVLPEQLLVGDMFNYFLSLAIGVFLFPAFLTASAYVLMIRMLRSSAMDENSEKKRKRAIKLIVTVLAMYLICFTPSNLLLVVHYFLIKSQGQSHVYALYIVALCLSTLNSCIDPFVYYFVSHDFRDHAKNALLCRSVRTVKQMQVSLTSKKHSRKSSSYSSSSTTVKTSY

[2] = biological target: complement protein C3 of cynomolgus monkey plasma (cynomolgus monkey); assay: cell-based or functional assay

Row | Binder | PAR-2 Cell Based Assay ED50 [1] [nM] | C3 destruction ED50 (mg/kg), in vivo, intravenous injection, cynomolgus monkey [2] [mg/kg]
1 | B1 | 1800 | 0.1
2 | B2 | 450 | 0.06
